In the supplement of paper PMC10567573:
± gives the standard deviation.

Assay: protein stability index of a GFP-peptide fusion (GPS, HEK-293T) (PSI 1-6); higher = more stable
[1] = treatment: DMSO, c terminus: a fixed tail appended
[2] = treatment: MLN4924 1 uM, 8 h, c terminus: a fixed tail appended
[3] = treatment: DMSO, c terminus: native
[4] = treatment: MLN4924 1 uM, 8 h, c terminus: native
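Further: 24-mer peptide tiles fused after GFP, lentivirally expressed, FACS-sorted into six equal bins by GFP/DsRed ratio, decoded by Illumina sequencing, PSI is the read-weighted mean bin number.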

Sequence	protein stability index [1]	protein stability index [2]	protein stability index [3]	protein stability index [4]
TAYNKGRLQSSFWIVDKQHVYIGS [PLD5]	2.49 ± 0.45	2 ± 0.27	–	–
IIKICDFGFAQILIPGDAYTDYVA [CDKL4]	2.6 ± 0.59	2.81 ± 0.95	–	–
NWFNVTGSDKCVFLKNTEVSSMEC [CD69]	2.82 ± 0.25	2.94 ± 0.26	–	–
CQTGGVEDQEEWHAQVVEELSNFK [ZBED1]	5.73 ± 0.26	5.6 ± 0.16	–	–
ALSRKKSQGLAREQHAGTSEGLHL [FBF1]	4.26 ± 0.28	3.78 ± 0.42	–	–
LEEDLKEVLRSEAGIELIIEDDIR [MYBL2]	4.66 ± 0.35	4.68 ± 0.39	–	–
KEKSSTVPIPTVNQYLYFLFAPTL [SOAT1]	2.57 ± 1	2.17 ± 0.51	–	–
NLRKQLETLSGDRVRLDSELRNVQ [KRT71]	3.69 ± 0.08	3.74 ± 0.15	–	–
TTSWGLLSLGALVALCWQLGLLFE [SCNN1D]	2.11 ± 0.13	2.13 ± 0.37	–	–
RVVSWLVSAEGSHPDPAPFCADNP [DVL3]	2.35 ± 0.3	2.58 ± 0.24	–	–
MEAAREGHEEMVALLLGQGANINA [ANKRD17]	4.16 ± 0.17	4.15 ± 0.24	–	–
RQLMKVVNEMCPNITRIYNIGKSH [CPXM2]	2.26 ± 0.12	2.71 ± 0.56	–	–
FLDNGYGHCLLDKPEAPLHLPVTF [ADAMTS4]	2.07 ± 0.37	2.16 ± 0.14	–	–
CLSRHSINPYSNRESRILFSTWNL [DFFB]	2.28 ± 0.27	2.15 ± 0.3	–	–
RIFTSNTHSSVVLQGFDQLRLEGL [KLHL13]	2.42 ± 0.18	2.49 ± 0.27	–	–
EVKSSIAGSSTWERYFIPVSCFLT [SLC29A1]	2.44 ± 0.37	2.34 ± 0.36	–	–
HAYFRGHSPSCLARVTGELTMTFP [FCHO1]	2.21 ± 0.52	2.23 ± 0.13	–	–
ADCVRGPDGVCLSGGRGPQGDKAI [PBXIP1]	4.52 ± 0.57	4.78 ± 0.22	–	–
SYKNLTLKFHKLVNVTIHFRLKTI [MCOLN1]	3.21 ± 0.5	3.03 ± 0.41	–	–
AFACQVAGCCQVFDALDDYEHHYH [ZNF511]	2.97 ± 0.45	2.74 ± 0.5	–	–
QRITQEQEKKLSFIEALIQQYQEQ [TRIM63]	2.68 ± 0.36	3.02 ± 0.52	–	–
DSSEEESHRVVLRPRGKERHKSGV [LYSMD4]	5.21 ± 0.28	5.14 ± 0.11	–	–
PMENLEKQLICPICLEMFTKPVVI [TRIM63]	2.43 ± 0.089	2.38 ± 0.36	–	–

Sequence	protein stability index [1]	protein stability index [2]	protein stability index [3]	protein stability index [4]
DAPPVELQLLHECSPSQMDLLCAQ [FANCE]	4.31 ± 0.054	4.63 ± 0.25	–	–
LFVIRGQPADVFPRLFKEWNITKL [CRY1]	2.18 ± 0.29	2.24 ± 0.32	–	–
TLSEAYIQIWKRRDNDETNQQGA [USP39]	–	–	2.52 ± 0.65	3.24 ± 0.42
IIESFTELARIVLLRHRMNWLGRP [RAB40A]	3.18 ± 0.72	2.79 ± 0.47	–	–
MDVGETAMVTADSKYCYGPQGSRS [FKBP8]	4.36 ± 0.31	4.51 ± 0.23	–	–
ARASEGSDSGSDKSLEGGGTAFDA [SMG5]	5.48 ± 0.3	5.37 ± 0.45	–	–
LFEEPEDPSNRSFFSEIISSVSDV [PPP2R2C]	4.24 ± 0.057	4.19 ± 0.19	–	–
EKEIPVLNELPVPMVARYIRINPQ [CPXM2]	3.16 ± 0.26	3.25 ± 0.18	–	–
AALSASMASLLEDLSHIEGLSQAP [SERTAD1]	2.81 ± 0.22	2.76 ± 0.26	–	–
LGVQTGGPGGRRAGEPGHSPADYL [DYRK1B]	4.34 ± 0.38	4.3 ± 0.31	–	–
VTINIQDLLSCSNFAVQHRYLFEE [MATN2]	2.86 ± 0.35	2.87 ± 0.73	–	–
RRDCDALMAGCIQEARERWNFDFV [CDKN1A]	2.06 ± 0.25	2.05 ± 0.19	–	–
VCLEYLKEPVIIECGHNFCKACIT [TRIM39]	2.38 ± 0.55	2.28 ± 0.29	–	–
FKMLDPDGKGKINKEYIKRLLMSQ [MYL5]	2.41 ± 0.28	2.63 ± 0.3	–	–
GDKLKFLSMLLTLKCEMNQMSGEP [ACSBG2]	2.38 ± 1.1	2.56 ± 1	–	–
HGLPFLPGTSFKDSTKTAFHRSQT [EFHC1]	3.53 ± 0.15	3.63 ± 0.087	–	–
VFLASKVEEFGVVSNTRLIAAATS [CCNC]	2.46 ± 0.68	2.24 ± 0.35	–	–
GIRQITSDDFCTFQMVLEGGVCCT [GFOD1]	2.18 ± 0.21	2.22 ± 0.4	–	–
NEYAYLPLHVHEEEGILVAVGQDC [DCAF4]	3.75 ± 0.18	3.91 ± 0.12	–	–
RRRGPRNKKRGWRRLAQEPLGLEV [NOP53]	3.65 ± 0.18	3.73 ± 0.4	–	–
GHAQDLMDGLPPGDSNQLAWFDTD [CTNNB1]	4.93 ± 0.31	4.7 ± 0.27	–	–
SGETWNPLKLHYQLRNVRERLAKN [GOLPH3]	2.87 ± 0.54	3.03 ± 0.21	–	–
TNIRLPNVPSSSLPAQPNRKPGMS [CHMP4C]	4.66 ± 0.28	4.51 ± 0.45	–	–

Sequence	protein stability index [1]	protein stability index [2]	protein stability index [3]	protein stability index [4]
HLRIHTGEKPYKCTHCSKSFRQRA [ZNF449]	2.83 ± 0.43	3.11 ± 0.38	–	–
GAGLPQFQSISLRKIQFNFPYFRS [CLCN6]	2.13 ± 0.26	2.21 ± 0.41	–	–
FRCSVCSRQLLPGDEFSLREHELL [ISL2]	2.39 ± 0.4	2.24 ± 0.59	–	–
AWGPGTLAAAPEGLEDAGLDPHFV [TEX19]	4.31 ± 0.25	4.37 ± 0.26	–	–
HKTAGKRYVYRFVCDLQSLLGYTP [ETS1]	3.08 ± 1	2.66 ± 0.57	–	–
GFVMVPFEYRGEQHKTCMLNATSK [EDNRA]	2.24 ± 0.43	2.75 ± 0.37	–	–
YLNYYQGMLDVADESLTDLEAQPY [P3H4]	2.8 ± 0.15	2.81 ± 0.14	–	–
MATTVTCTRFTDEYQLYEDIGKGA [CAMK2B]	3.25 ± 0.2	3.31 ± 0.18	–	–
LVLNSQQSDTLEQREEHELVHVME [RAD54B]	4.59 ± 0.24	4.36 ± 0.21	–	–
PVNALVSHLLVVEPEKLYAMPDPA [ESRRA]	2.88 ± 0.24	2.92 ± 0.27	–	–
IEKWVILEKDFSIYGGELGPMMKL [ACSBG2]	2.56 ± 0.71	2.38 ± 0.44	–	–
TLIDGGEHYWEVRYEPDSKAFGVG [FSD1]	2.65 ± 0.27	2.86 ± 0.39	–	–
NKATNTDHLTTVLYLQLAICSSLQ [C8orf76]	3.4 ± 0.44	3.21 ± 0.64	–	–
PASRRRVVEEVRRRATSGGKWPQV [LPCAT4]	3.99 ± 0.17	3.82 ± 0.23	–	–
GSLCSPWAAPRVGPLPPAPAMVRI [YPEL3]	2.95 ± 0.15	3.07 ± 0.45	–	–
EAVPEGPDGGGPWLEDEPGRGAQG [ZSWIM9]	5.45 ± 0.52	5.56 ± 0.35	–	–
EEAEELAKEMSVPFYTSRIDEVLL [GFOD1]	3.83 ± 0.24	4.11 ± 0.33	–	–
LIFLSNFPFSLLGLLALAIGLWGL [TSPAN10]	3.21 ± 0.27	2.93 ± 0.25	–	–
MYQELMEMCHKPDVELLQDLGDIV [TRIM43]	2.57 ± 0.28	2.71 ± 0.45	–	–
FFGVFQSFVVLLYILDNETNFVVQ [CLPTM1]	3.19 ± 0.33	2.86 ± 0.42	–	–
RAPPKRKRKRVKQRINTYVFVGNQ [PCMTD1]	3.53 ± 0.15	3.41 ± 0.43	–	–
KEKLQKCLEPLEQKLQEITRCKSS [TRIM39]	4.38 ± 0.22	4.44 ± 0.4	–	–
LQTVTREKEELLQLSIERGKVLQN [CCDC89]	4.13 ± 0.25	4.42 ± 0.26	–	–

Sequence	protein stability index [1]	protein stability index [2]	protein stability index [3]	protein stability index [4]
KILLDAQHESGQSSSRGSSHCDSP [BNIP3L]	4.91 ± 0.18	4.83 ± 0.1	–	–
VETLLRHGAHINLQSLKFQGGHGP [RIPK4]	2.63 ± 0.39	3.11 ± 0.24	–	–
KSEGQKIPKVELQISIYGVKILEP [GULP1]	2.84 ± 1	2.3 ± 1.1	–	–
GTARYMSINTHLGKEQSRRDDLEA [CSNK1G3]	4.75 ± 0.42	4.63 ± 0.16	–	–
RRGLLVSLNELMIVIGILSAYISN [SLC2A12]	3.05 ± 0.72	2.67 ± 0.84	–	–
EIDTQGRHLAHSMLQRAIAYQHSG [C10orf62]	2.91 ± 0.24	3.15 ± 0.28	–	–
LPQEDPSTSQGCAQPQGAPCCSSS [FEM1A]	5.48 ± 0.12	5.37 ± 0.19	–	–
KQKVMTHVSNGCQLLLGVKGHAF [JUNB]	–	–	2.16 ± 0.21	2.23 ± 0.21
TYRRLLEDGEDFNLGDALDSSNSM [KRT18]	4.29 ± 0.14	4.52 ± 0.21	–	–
KASSRKPFGILSPNVLCSMSGKSP [FBXO34]	2.83 ± 0.095	3 ± 0.27	–	–
MESSKPGPVQVVLVQKDQHSFELD [ATL3]	4.35 ± 0.19	4.04 ± 0.33	–	–
PMQKLQDLVNRTPWKKCCFSGDGE [RBBP5]	2.84 ± 0.15	2.94 ± 0.071	–	–
QNQPIDKARKTYERLVAQFPSSGR [CSTF3]	3.75 ± 0.26	3.9 ± 0.24	–	–
LGPPLVRKRIHDSRVAGFNPALQL [TOR1AIP2]	3.07 ± 0.28	3.03 ± 0.26	–	–
SLKLKSSHHSKHKAPSKLGLIISG [DLC1]	2.66 ± 0.072	2.77 ± 0.55	–	–
LDYYKTGIIRCPDGISIPELREAC [BTBD10]	2.42 ± 0.34	2.5 ± 0.38	–	–
LDASGEKMNGSHRDQGSSALSGVG [IKZF1]	4.97 ± 0.51	5.05 ± 0.3	–	–
DIGKGAFSVVRRCVKLCTGHEYAA [CAMK2B]	1.93 ± 0.2	2.06 ± 0.37	–	–
ALVHDHQAYAHYLLATFPRRALAP [ANKRD9]	2.22 ± 0.21	2.4 ± 0.19	–	–
KLRHDLKKTSITQQPSKHRTDEEL [PLK2]	4.915 ± 0.039	5.1 ± 0.15	–	–
